Measurements: IntAct's records for PubMed 17721437

B1: Dynamin-1-like protein (Rattus norvegicus (Rat)), O35303 (parent)
chain: MEALIPVINKLQDVFNTVGADIIQLPQIVVVGTQSSGKSSVLESLVGRDLLPRGTGVVTRRPLILQLVHVSPEDKRKTTGEENDPATWKNSRHLSKGVEAEEWGKFLHTKNKLYTDFDEIRQEIENETERISGNNKGVSPEPIHLKVFSPNVVNLTLVDLPGMTKVPVGDQPKDIELQIRELILRFISNPNSIILAVTAANTDMATSEALKISREVDPDGRRTLAVITKLDLMDAGTDAMDVLMGRVIPVKLGIIGVVNRSQLDINNKKSVTDSIRDEYAFLQKKYPSLANRNGTKYLARTLNRLLMHHIRDCLPELKTRINVLAAQYQSLLNSYGEPVDDKSATLLQLITKFATEYCNTIEGTAKYIETSELCGGARICYIFHETFGRTLESVDPLGGLNTIDILTAIRNATGPRPALFVPEVSFELLVKRQIKRLEEPSLRCVELVHEEMQRIIQHCSNYSTQELLRFPKLHDAIVEVVTCLLRKRLPVTNEMVHNLVAIELAYINTKHPDFADACGLMNNNIEEQRRNRLARELPSAVSRDKSSKVPSALAPASQEPSPAASAEADGKLIQDNRRETKNVASAGGGIGDGGRIGDGGQEPTTGNWRGMLKTSKAEELLAEEKSKPIPIMPASPQKGHAVNLLDVPVPVARKLSAREQRDCEVIERLIKSYFLIVRKNIQDSVPKAVMHFLVNHVKDTLQSELVGQLYKSSLLDDLLTESEDMAQRRKEAADMLKALQGASQIIAEIRETHLW

Variants of: B1
Details: with kapca_rat Prkaca

Variant	effect of a mutation on the interaction
S656A	disrupting interaction
